The experiment concerns the target FLAG-Mfn2 (UniProt O95140). Put plainly: co-IP.
Sequence of UniProt O95140 (O95140 whole entry): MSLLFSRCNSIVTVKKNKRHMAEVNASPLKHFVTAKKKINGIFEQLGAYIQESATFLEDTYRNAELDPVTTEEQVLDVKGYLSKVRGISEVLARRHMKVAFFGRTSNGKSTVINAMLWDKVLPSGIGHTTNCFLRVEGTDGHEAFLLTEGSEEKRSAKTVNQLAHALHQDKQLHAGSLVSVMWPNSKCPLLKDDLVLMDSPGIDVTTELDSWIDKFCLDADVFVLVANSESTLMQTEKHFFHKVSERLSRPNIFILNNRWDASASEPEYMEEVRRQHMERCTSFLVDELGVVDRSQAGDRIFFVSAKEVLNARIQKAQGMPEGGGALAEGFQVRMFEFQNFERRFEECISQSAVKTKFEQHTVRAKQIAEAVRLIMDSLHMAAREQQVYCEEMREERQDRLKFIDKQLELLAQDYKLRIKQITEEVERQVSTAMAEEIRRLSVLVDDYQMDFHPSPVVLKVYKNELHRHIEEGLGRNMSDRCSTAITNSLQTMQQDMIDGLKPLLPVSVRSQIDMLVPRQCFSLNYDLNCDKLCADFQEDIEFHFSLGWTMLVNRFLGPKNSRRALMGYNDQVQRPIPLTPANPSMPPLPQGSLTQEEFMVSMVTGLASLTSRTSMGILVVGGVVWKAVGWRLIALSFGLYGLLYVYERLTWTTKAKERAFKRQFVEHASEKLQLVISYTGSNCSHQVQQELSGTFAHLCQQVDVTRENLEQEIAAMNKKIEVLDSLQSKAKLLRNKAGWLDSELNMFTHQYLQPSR

The substance GFP-Bcl-xL/Bax H5 yielded a percent of GFP-Bcl-xL/Bax H5 bound to FLAG-Mfn2 of 3%.

The values are drawn from paper PMC2970747.
